The first assay deals with FGFR4/KLB: ectodomain of human FGFR4 fused to Fc, with human beta-klotho (human) (UniProt P22455).
Sequence of FGF21 analog 23 (-1A, 121Q, 168L, 180C; C20 fatty diacid on 180C) (Q9NSA1 other isoform, or with tags, fused parts or gaps): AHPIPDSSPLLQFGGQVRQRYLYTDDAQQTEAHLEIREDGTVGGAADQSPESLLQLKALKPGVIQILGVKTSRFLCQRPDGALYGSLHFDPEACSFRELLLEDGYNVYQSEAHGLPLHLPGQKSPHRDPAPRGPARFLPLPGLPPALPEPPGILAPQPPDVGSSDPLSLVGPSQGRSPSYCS
Sequence of FGF21 analog 7 (-1A, 121Q, 168L, 170C; cysteamine on 170C) (Q9NSA1 other isoform, or with tags, fused parts or gaps): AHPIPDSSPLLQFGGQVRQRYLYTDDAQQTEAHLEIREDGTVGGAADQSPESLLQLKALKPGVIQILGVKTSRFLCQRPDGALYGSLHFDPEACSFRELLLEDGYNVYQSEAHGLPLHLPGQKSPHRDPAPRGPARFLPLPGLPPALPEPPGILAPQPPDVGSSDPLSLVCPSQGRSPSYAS
Sequence of FGF21 analog 10 (-1A, 121Q, 168L, 174C; C18 fatty diacid on 174C) (Q9NSA1 other isoform, or with tags, fused parts or gaps): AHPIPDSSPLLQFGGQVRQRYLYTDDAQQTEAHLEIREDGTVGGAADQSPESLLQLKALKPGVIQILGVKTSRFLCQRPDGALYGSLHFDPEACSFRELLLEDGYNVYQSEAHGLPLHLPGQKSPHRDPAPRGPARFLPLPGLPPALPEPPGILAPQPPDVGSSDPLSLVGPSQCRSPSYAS
Sequence of Met-FGF19 (25) (O95750 other isoform, or with tags, fused parts or gaps): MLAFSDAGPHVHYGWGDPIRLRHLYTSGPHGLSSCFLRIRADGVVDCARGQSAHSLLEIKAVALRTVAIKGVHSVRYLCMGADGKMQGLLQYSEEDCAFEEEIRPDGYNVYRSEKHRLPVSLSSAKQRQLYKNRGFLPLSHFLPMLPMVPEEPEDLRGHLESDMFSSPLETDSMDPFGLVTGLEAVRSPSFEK
Sequence of FGF21 analog 5 (-1A, 71C, 121Q, 168L; C18 fatty diacid on 71C) (Q9NSA1 other isoform, or with tags, fused parts or gaps): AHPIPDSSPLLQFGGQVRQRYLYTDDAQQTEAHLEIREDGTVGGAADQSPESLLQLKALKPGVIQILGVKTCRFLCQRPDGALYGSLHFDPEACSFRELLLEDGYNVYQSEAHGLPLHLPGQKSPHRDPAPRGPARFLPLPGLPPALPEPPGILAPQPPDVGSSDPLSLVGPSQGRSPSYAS
Sequence of FGF21 analog 3 (-1A, 121Q) (Q9NSA1 28-209 N149Q): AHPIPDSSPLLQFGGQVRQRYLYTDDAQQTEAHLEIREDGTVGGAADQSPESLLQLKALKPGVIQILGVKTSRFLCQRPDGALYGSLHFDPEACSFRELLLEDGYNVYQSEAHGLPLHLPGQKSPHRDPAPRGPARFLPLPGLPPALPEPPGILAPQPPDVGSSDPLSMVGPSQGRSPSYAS
Sequence of FGF21 analog 2 (-1A) (Q9NSA1 28-209): as the sequence (Q9NSA1 28-209 N149Q) above, with Q122N counted along it
Sequence of FGF21 (0) (Q9NSA1 29-209): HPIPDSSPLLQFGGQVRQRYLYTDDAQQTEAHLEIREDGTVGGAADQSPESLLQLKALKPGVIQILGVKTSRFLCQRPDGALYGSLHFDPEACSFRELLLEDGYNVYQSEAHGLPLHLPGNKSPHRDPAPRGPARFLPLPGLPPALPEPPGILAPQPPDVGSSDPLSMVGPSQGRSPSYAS
Sequence of FGF21 analog 19 (-1A, 121Q, 168L, 181C; cysteamine on 181C) (Q9NSA1 other isoform, or with tags, fused parts or gaps): as the sequence (Q9NSA1 28-209 N149Q) above, with M169L, S182C counted along it
Sequence of FGF21 analog 13 (-1A, 121Q, 168L, 178C; cysteamine on 178C) (Q9NSA1 other isoform, or with tags, fused parts or gaps): as the sequence (Q9NSA1 28-209 N149Q) above, with M169L, S179C counted along it
Sequence of FGF21 analog 12 (-1A, 121Q, 168L, 176C; cysteamine on 176C) (Q9NSA1 other isoform, or with tags, fused parts or gaps): as the sequence (Q9NSA1 28-209 N149Q) above, with M169L, S177C counted along it
Sequence of FGF21 analog 8 (-1A, 121Q, 168L, 171C; cysteamine on 171C) (Q9NSA1 other isoform, or with tags, fused parts or gaps): as the sequence (Q9NSA1 28-209 N149Q) above, with M169L, P172C counted along it
Sequence of cysteamine protected Ala[Gln121, Leu168, Cys180]FGF21 (16) (Q9NSA1 other isoform, or with tags, fused parts or gaps): as the sequence (Q9NSA1 28-209 N149Q) above, with M169L, A181C counted along it
Sequence of FGF21 analog 14 (-1A, 121Q, 168L, 179C; cysteamine on 179C) (Q9NSA1 other isoform, or with tags, fused parts or gaps): as the sequence (Q9NSA1 28-209 N149Q) above, with M169L, Y180C counted along it
Sequence of FGF21 analog 6 (-1A, 121Q, 167C, 168L; cysteamine on 167C) (Q9NSA1 other isoform, or with tags, fused parts or gaps): as the sequence (Q9NSA1 28-209 N149Q) above, with S168C, M169L counted along it
Sequence of FGF21 analog 9 (-1A, 121Q, 168L, 172C; cysteamine on 172C) (Q9NSA1 other isoform, or with tags, fused parts or gaps): as the sequence (Q9NSA1 28-209 N149Q) above, with M169L, S173C counted along it
In turn, “Met-FGF19 (25) (from UniProt O95750 25-216) (ligand)” returned a potency EC50 of ERK phosphorylation in Ba/F3 cells overexpressing human KLB and FGFR4 (chimera with the kinase domain of FGFR1c), 0% HSA of 2.3 nM.

In another assay the target is human serum albumin (HSA) (human) (UniProt P02768).
For the substance “FGF21 analog 20 (-1A, 121Q, 168L, 180C; C12 fatty diacid on 180C) (from UniProt Q9NSA1 29-209) (ligand)”, the potency (EC50) of ERK phosphorylation in HEK293/human KLB cells with 0.1 and 1.0% HSA: 3.7 and 5.2 nM (5.8 nM without HSA); no HSA-dependent reduction of potency came out at 5.2 nM.
“FGF21 analog 21 (-1A, 121Q, 168L, 180C; C14 fatty diacid on 180C) (from UniProt Q9NSA1 29-209) (ligand)”: the potency (EC50) of ERK phosphorylation in HEK293/human KLB cells with 0.1, 1.0 and 1.5% HSA: 4.0, 5.8 and 8.6 nM (5.2 nM without HSA); no HSA-dependent reduction of potency is 8.6 nM.
Take “FGF21 analog 22: Ala[Gln121, Leu168, Cys180]FGF21 with a C16 fatty diacid side chain on 180C (from UniProt Q9NSA1 29-209) (ligand)”: the potency (EC50) of ERK phosphorylation in HEK293/human KLB cells with 0.1, 1.0 and 1.5% HSA: 4.2, 52 and 92 nM (3.5 nM without HSA) is 92 nM.
In turn, “FGF21 analog 23 (-1A, 121Q, 168L, 180C; C20 fatty diacid on 180C) (from UniProt Q9NSA1 29-209) (ligand)” returned a potency (EC50) of ERK phosphorylation in HEK293/human KLB cells with 0.1 and 1.5% HSA: 47 and 173 nM (3.8 nM without HSA) of 173 nM.

Another assay deals with human beta-klotho (KLB) on HEK293 cells (human) (UniProt Q86Z14).
“FGF21 analog 20 (-1A, 121Q, 168L, 180C; C12 fatty diacid on 180C) (from UniProt Q9NSA1 29-209) (ligand)” yielded a potency (EC50) of ERK phosphorylation in HEK293 cells transfected with human KLB, 0% HSA of 5.8 nM.
Substance “FGF21 analog 21 (-1A, 121Q, 168L, 180C; C14 fatty diacid on 180C) (from UniProt Q9NSA1 29-209) (ligand)” had a potency (EC50) of ERK phosphorylation in HEK293 cells transfected with human KLB, 0% HSA of 5.2 nM.
The same measure, in the same setting: to “FGF21 analog 22: Ala[Gln121, Leu168, Cys180]FGF21 with a C16 fatty diacid side chain on 180C (from UniProt Q9NSA1 29-209) (ligand)” belongs 3.5 nM.
As to “FGF21 analog 23 (-1A, 121Q, 168L, 180C; C20 fatty diacid on 180C) (from UniProt Q9NSA1 29-209) (ligand)”, the potency (EC50) of ERK phosphorylation in HEK293 cells transfected with human KLB, 0% HSA is 3.8 nM.

Another assay has the same target. This is another data set of the same source.
Consider “FGF21 (0) (from UniProt Q9NSA1 29-209) (ligand)”, for which the potency (EC50) of ERK phosphorylation in HEK293 cells transfected with human KLB, without HSA worked out at 1 nM.
As to “FGF21 analog 2 (-1A) (from UniProt Q9NSA1 29-209) (ligand)”, the potency (EC50) of ERK phosphorylation in HEK293 cells transfected with human KLB, without HSA was found to be 1.3 nM.
“FGF21 analog 3 (-1A, 121Q) (from UniProt Q9NSA1 29-209) (ligand)”: the potency (EC50) of ERK phosphorylation in HEK293 cells transfected with human KLB, without HSA is 1 nM.
For the substance “FGF21 analog 5 (-1A, 71C, 121Q, 168L; C18 fatty diacid on 71C) (from UniProt Q9NSA1 29-209) (ligand)”, the potency (EC50) of ERK phosphorylation in HEK293 cells transfected with human KLB, without HSA stood at 4.8 nM.
Consider “FGF21 analog 6 (-1A, 121Q, 167C, 168L; cysteamine on 167C) (from UniProt Q9NSA1 29-209) (ligand)”, for which the potency (EC50) of ERK phosphorylation in HEK293 cells transfected with human KLB, without HSA is 1.4 nM.
“FGF21 analog 7 (-1A, 121Q, 168L, 170C; cysteamine on 170C) (from UniProt Q9NSA1 29-209) (ligand)” registered a potency (EC50) of ERK phosphorylation in HEK293 cells transfected with human KLB, without HSA of 3.4 nM.
In turn, “FGF21 analog 8 (-1A, 121Q, 168L, 171C; cysteamine on 171C) (from UniProt Q9NSA1 29-209) (ligand)” registered a potency (EC50) of ERK phosphorylation in HEK293 cells transfected with human KLB, without HSA of 2.2 nM.
Consider “FGF21 analog 9 (-1A, 121Q, 168L, 172C; cysteamine on 172C) (from UniProt Q9NSA1 29-209) (ligand)”, for which the potency (EC50) of ERK phosphorylation in HEK293 cells transfected with human KLB, without HSA was found to be 3.3 nM.
For “FGF21 analog 10 (-1A, 121Q, 168L, 174C; C18 fatty diacid on 174C) (from UniProt Q9NSA1 29-209) (ligand)”, the potency (EC50) of ERK phosphorylation in HEK293 cells transfected with human KLB, without HSA worked out at 1.5 nM.
For “FGF21 analog 11 (-1A, 121Q, 168L, 174C; cysteamine on 174C) (from UniProt Q9NSA1 29-209) (ligand)”, the potency (EC50) of ERK phosphorylation in HEK293 cells transfected with human KLB, without HSA was determined as 6.1 nM.
Consider “FGF21 analog 12 (-1A, 121Q, 168L, 176C; cysteamine on 176C) (from UniProt Q9NSA1 29-209) (ligand)”, for which the potency (EC50) of ERK phosphorylation in HEK293 cells transfected with human KLB, without HSA was 160 nM.
Still for that read-out and setting: to “FGF21 analog 13 (-1A, 121Q, 168L, 178C; cysteamine on 178C) (from UniProt Q9NSA1 29-209) (ligand)” belongs 90 nM; to “FGF21 analog 14 (-1A, 121Q, 168L, 179C; cysteamine on 179C) (from UniProt Q9NSA1 29-209) (ligand)”, 67 nM.
“FGF21 analog 19 (-1A, 121Q, 168L, 181C; cysteamine on 181C) (from UniProt Q9NSA1 29-209) (ligand)” gave a potency (EC50) of ERK phosphorylation in HEK293 cells transfected with human KLB, without HSA of 24 nM.
In turn, “cysteamine protected Ala[Gln121, Leu168, Cys180]FGF21 (16) (from UniProt Q9NSA1 29-209) (ligand)” registered a potency (EC50) of ERK phosphorylation in HEK293 cells transfected with human KLB, without HSA (with 0.1 and 1.0% HSA: 1.8 and 2.1 nM, Table 3) of 2.5 nM.

Values taken from article PMC11284795.
